# Source: article PMC8867601, “The TERB1 MYB domain suppresses telomere erosion in meiotic prophase I”
# T1: hTERB1-MYB (Homo sapiens, UniProt Q8NA31 666-719)
# T1 sequence: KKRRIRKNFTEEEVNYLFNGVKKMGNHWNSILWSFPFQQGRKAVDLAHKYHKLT
# T2: mTERB1-MYB (Mus musculus, UniProt Q8C0V1 707-760)
# T2 sequence: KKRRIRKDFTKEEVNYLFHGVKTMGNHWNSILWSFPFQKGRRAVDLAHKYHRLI
# B1: dsDNA_telo_8-mer (TTAGGG)8 (dsDNA)
# DNA 1: TTAGGGTTAGGGTTAGGGTTAGGGTTAGGGTTAGGGTTAGGGTTAGGG
# DNA 2: CCCTAACCCTAACCCTAACCCTAACCCTAACCCTAACCCTAACCCTAA
# B2: dsDNA_scrambled_8-mer (dsDNA)
# DNA 1: GACAGCGATGAGAACTAATTCGTGTGCTTGCTGACTGATATCGTGACT
# DNA 2: AGTCACGATATCAGTCAGCAAGCACACGAATTAGTTCTCATCGCTGTC
# What was measured:
# hTRF2-MYB = hTRF2-MYB (Homo sapiens, UniProt Q15554 488-542); assay: EMSA; 150 nM probe; 50 mM Tris-HCl pH 8.0, 6.5% glycerol, 20 mM NaCl, 5 mM DTT, 150 nM probe, 10 ul, 30 min on ice; 4-20% TBE native gel; conditions: protein: recombinant; tags: none after Ulp1 cleavage of 10xHis-Smt3; label: 32P (T4 PNK)
# Chain of hTRF2-MYB (Q15554 488-542): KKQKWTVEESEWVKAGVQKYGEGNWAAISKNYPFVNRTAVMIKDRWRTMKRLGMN
# hTERB1-MYB [1] = target: T1, hTERB1-MYB; assay: as above; conditions: protein: recombinant; tags: none after Ulp1 cleavage of His-Smt3; label: 32P (T4 PNK)
# mTERB1-MYB [2] = target: T2, mTERB1-MYB; assay: as above; conditions: protein: recombinant; tags: 6xHis (not cleaved); label: 32P (T4 PNK)
# hTERB1-MYB [3] = target: T1, hTERB1-MYB; assay: EMSA; 2-8 uM protein, 150 nM probe; 50 mM Tris-HCl pH 8.0, 6.5% glycerol, 20 mM NaCl, 5 mM DTT, 150 nM probe, 10 ul, 30 min on ice; 4-20% TBE native gel; conditions: protein: recombinant; tags: none after Ulp1 cleavage of His-Smt3; label: 32P (T4 PNK)
# mTERB1-MYB [4] = target: T2, mTERB1-MYB; assay: as above; conditions: protein: recombinant; tags: 6xHis (not cleaved); label: 32P (T4 PNK)
Binder,binding result (hTRF2-MYB),binding result (hTERB1-MYB [1]),binding result (mTERB1-MYB [2]),binding result (hTERB1-MYB [3]),binding result (mTERB1-MYB [4])
B1,binds,no binding,no binding,–,–
B2,–,–,–,no binding,no binding
